# From PMC5603870 (2017)
# T1: CD20 (Homo sapiens, UniProt P11836)
# T1 chain: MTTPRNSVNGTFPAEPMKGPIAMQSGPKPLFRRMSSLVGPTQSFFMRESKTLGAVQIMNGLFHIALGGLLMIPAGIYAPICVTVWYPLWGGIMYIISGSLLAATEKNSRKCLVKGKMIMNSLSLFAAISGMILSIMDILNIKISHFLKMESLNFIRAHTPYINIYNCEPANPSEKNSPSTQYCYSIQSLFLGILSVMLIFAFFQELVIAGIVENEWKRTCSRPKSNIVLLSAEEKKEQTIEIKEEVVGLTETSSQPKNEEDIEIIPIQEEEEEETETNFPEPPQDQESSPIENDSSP
# B1: Rituximab (antibody, V domains shown)
# VH: QVQLQQPGAELVKPGASVKMSCKASGYTFTSYNMHWVKQTPGRGLEWIGAIYPGNGDTSYNQKFKGKATLTADKSSSTAYMQLSSLTSEDSAVYYCARSTYYGGDWYFNVWGAGTTVTVSA
# VL: QIVLSQSPAILSASPGEKVTMTCRASSSVSYIHWFQQKPGSSPKPWIYATSNLASGVPVRFSGSGSGTSYSLTISRVEAEDAATYYCQQWTSNPPTFGGGTKLEIK
# modifications: 90Y-DOTA conjugated
# Target: T1, CD20
# Assay: saturation binding
binder,measurement,value
B1,Kd,2.84 nM
